Our source for the protein production values is a protein production outcome set (Wang et al. 2014).

The data set is described as follows: label from the status in PepcDB records.
As to “MMMEEKLVINELELGKELANRLMNNLKHTSSVDSNKTLISDILRIYQNAIFMLSFNQDKNILKRSLEIDGKDSKNVFKKRKVSEKNTEKVKVFVATEQENGSIDDGHCWRKYGQKEIHGSKNPRAYYRCTHRFTQDCLAVKQVQKSDTDPSLFEVKYLGNHTCNNITSPKTTTNFSVSLTNTNIFEGNRVHVTEQSEDMKPTKSEEVMISLEDLENKKNIFRTFSFSNHEIENGVWKSNLFLGNFVEDLSPATSGSAITSEVLSAPAAVENSETADSYFSSLDNIIDFGQDWLWS”, the protein production result was “failed”.
Take “MMNLALQQRISELGPWFQNMRFGEIETAPDHFLGDYPAFKWEGFKHVVPKDLEGCSVLDIGCNAGFYALEMKRRNAGRVLGIDSDPRYLEQARFAADHFGLDVEFRQMSVYEVSKLGERFDLVLFMGVLYHLRHPLLALDLLYEHVVADLMLFQCLQRGEERIAKLEEDYDFSEWKIFDRSDFPKLFFVEERFAADPTNWFIPNKAAVEAMLRSSGFVIEANPEREVYLCRRGRRPYKVEPPPG”: the protein production result was “failed”.
The entry for “MMNNVKYLSFALILAFSACKSGSASSQEPSEKQDTVKIFNLPQIPVVLNTVEQRTDYMVKHYWDRFDFSDTTYINQAEVPEQAWVDYCDLLEHVPLPVAQTAMKETFNRAEKNRKMLHFFEELADKYLYDPNSPMRNEEFYIPVLEALIASPALDETAKIRPQARLELAQKNRLGTKALNFTYTLDSGVKGTLYQFPAEYTLLFINNPGCHACAEMIEGLKASPVINGFTAAKKLKVLSIYPDEELDEWKKHRNDFAKEWTNGYDKELVIKNKNLYDLRAIPTLYLLDKNKTVLLKDATLQKVEQYLAERG” is “failed”; for “MMNSRQRYKAFISYSHHDRKAAEWLHRSLESYRPPAGLRAGLGEASGNALKPIFRDRDELSAAADLSEAIRDALDRSDTLIILCSSHAATSRWVDKEVAHFLTLRGADHMISVIAPGAPEGLPLMELLPPALRAALPEGVEPLAVDLRQDADGRRLAKLKIAARLLGVSLDRLVQRDARRRLRLMTAVSGVALAITVGMGAMTVVTLKSRQIAREQRDETEALVAYMLGDLREQLEPVGRLDLLDGVSAKVLAYYAKAQSDQLDDKALAQRAKAQTLLGTIREQRGDLEGAQDAFAQAAATTHALVERSPNDGDRVFDEAQNVFWLAYMGWRRGEIAQAERGFKRYAELAQRLVVIDPNRADWRIEVAYAKNNLGTLLFEEGRAGEALASFRAAFSIFEAERLRAPTDKQRLMDSANARAWVADCLLLMAKPREAFTERKAAAELLAKGEAAFPADQRLAAKSVATQLALARLELDLGRVAEARSRSKAAMNRLRELAALDPTNTRWREYVLIGELDFIDFAIWSGQPVQARSLHAAALANLARTRKGQEGGSWRPDLDGRLARQAVVLALSVGDVATAKRAAKSLVEALETSKVDRETAFGRTDLLGLAQLVDGKPSAAIKALSPRRNALPPASLDVLARAYAAVGERETAARIVRDLKQEGYAHPGFVAFWRESPAGGPPQSGVLK” it is “failed”.
“MMNTTTLDRYFDLFDASRTDEKAFDDLISLFSDEITFVLNGQEQHGIDAWKQFVRMVFTANQDIKHMYAGWVPSETGDTMETRWAVCGKSADGSVFTQDGTDIARLNADGKIVYLANVPDDTAMFNQYND”: the protein production result is recorded as “not failed”.
Turning to “MMNYKQLLIDNFAFKTSYVAQFVPGMSIKETKDYIAVDCGLPADTFNIITLLNNNLTEGVEKLYKEVEYYNQKKFPMSVWLWDEEQERDIKSELNKIGLKEAEQNIAMVADLKTISPTINMPVSFTIQQASSPGLIKKFGETLANLFGTSEEAIHVQAFYNQISNLDLWNSENMKLFLGFYEGEIVTVGSLICSKDSIGIYDIATKEEMRGRGFGSTMFNFLLQEAQKFKNTYCVLQASTDGINIYKKSGFQAIGKMTVLENRHVIE”, the protein production result is “failed”.
The entry for “MMPLSTPDFASIRDTLLRDLQNLRADADIAPDSDYFVRASSVASAVEGLYQHQSWIARQIFPDTADSEYLEQHARLRGIVRKPAAAASGTLRISGNAGAVVSGSLQLRIGEQLYATPAANPDGSPYAARLDANGQAELPIFASQAGAAGNQPESLPVELMQAPSGVSAKALLLSMRNGVDVEDDAALLDRLLELIRRPPAGGNRHDYRRWAMEVKGVSAAYVYPLRRGLGTVDVVITANGDLPSQEILNNVQAHIEDLRPVTAKSCLVLAPTPRPVDIDVALNLGGANLDAFTPLLQQTLQAYFAGLAPGERLVKSRIEALISDLPGVQDRQLNSPAGNVDPVSDPTKVEWLRLGKLTVGLLKLEHHHHHH” is “not failed”.
